In US20180195056:

B1: xlAtg4B^14-384 (protein)
chain: ADTPDFPETAEPVWVLGRKYSALTEKEQLLNDITSRLWFTYRRNFQAIGGTGPTSDTGWGCMLRCGQMIFAQALICRHVGRDWRWDKQKPKGEYLNILTAFLDKKDSYYSIHQIAQMGVGEGKYIGQWYGPNTVAQVLRKLAVFDQWSSIAVHIAMDNTVVVDEIRRLCRAGSGESSDAGALSNGYTGDSDPSCAQWKPLVLLIPLRLGLSEINEAYIETLKHCFMVPQSLGVIGGRPNSAHYFIGYVGDELIYLDPHTTQLSVEPSDCSFIEDESFHCQHPPCRMHVSEIDPSIAVGFFCSSQEDFEDWCQHIKKLSLSGGALPMFEVVDQLPLHLSNPDVLNLTPDSSDADRLDRFFDSEDEEFEILSL
His14-xlGATE16-MBP
  salt sensitivity of substrate cleavage (500 nM protease, 1 h, 0° C.): also full-length or N-terminally truncated xlAtg4B fragments showed a reduced cleavage activity at ≥1 M NaCl
  substrate excess cleaved to near completion within 1 h at 25° C.: near-complete cleavage of a 6600-fold substrate excess was reached for the two N-terminally shortened protease fragments already at 25 °C
His14-xlLC3B-MBP
  cleavage efficiency at limiting substrate concentration (constant protease:substrate ratio 1:1000, 1 h, 0° C.): full-length xlAtg4B and both N-terminally shortened fragments could cleave the xlLC3B substrate rather efficiently even at substrate concentrations as low as 3-10 µM
  protease concentration sufficient to cleave 100 µM substrate within 1 h at 0° C.: 1 µM of each protease fragment was sufficient to cleave 100 µM of substrate within 1 h
  salt sensitivity of substrate cleavage (500 nM protease, 1 h, 0° C.): xlLC3B processing by full-length xlAtg4B or its N-terminally truncated fragments was remarkably insensitive towards NaCl concentrations up to 1.5 M
  substrate cleavage (20 µM protease, 100 µM substrate, 3 h, 25° C.): xlLC3B was nearly exclusively recognized by xlAtg4B^14-384
  substrate excess cleaved to near completion within 1 h at 37° C.: Within 1 h at 37° C., all three enzymes were able to cleave a >3000-fold excess of the xlLC3B substrate to near completion

B2: xlAtg4B^25-384 (protein)
chain: PVWVLGRKYSALTEKEQLLNDITSRLWFTYRRNFQAIGGTGPTSDTGWGCMLRCGQMIFAQALICRHVGRDWRWDKQKPKGEYLNILTAFLDKKDSYYSIHQIAQMGVGEGKYIGQWYGPNTVAQVLRKLAVFDQWSSIAVHIAMDNTVVVDEIRRLCRAGSGESSDAGALSNGYTGDSDPSCAQWKPLVLLIPLRLGLSEINEAYIETLKHCFMVPQSLGVIGGRPNSAHYFIGYVGDELIYLDPHTTQLSVEPSDCSFIEDESFHCQHPPCRMHVSEIDPSIAVGFFCSSQEDFEDWCQHIKKLSLSGGALPMFEVVDQLPLHLSNPDVLNLTPDSSDADRLDRFFDSEDEEFEILSL
His14-xlGATE16-MBP
  salt sensitivity of substrate cleavage (500 nM protease, 1 h, 0° C.): also full-length or N-terminally truncated xlAtg4B fragments showed a reduced cleavage activity at ≥1 M NaCl
  substrate excess cleaved to near completion within 1 h at 25° C.: near-complete cleavage of a 6600-fold substrate excess was reached for the two N-terminally shortened protease fragments already at 25 °C
His14-xlLC3B-MBP
  cleavage efficiency at limiting substrate concentration (constant protease:substrate ratio 1:1000, 1 h, 0° C.): full-length xlAtg4B and both N-terminally shortened fragments could cleave the xlLC3B substrate rather efficiently even at substrate concentrations as low as 3-10 µM
  protease concentration sufficient to cleave 100 µM substrate within 1 h at 0° C.: 1 µM of each protease fragment was sufficient to cleave 100 µM of substrate within 1 h
  salt sensitivity of substrate cleavage (500 nM protease, 1 h, 0° C.): xlLC3B processing by full-length xlAtg4B or its N-terminally truncated fragments was remarkably insensitive towards NaCl concentrations up to 1.5 M
  substrate excess cleaved to near completion within 1 h at 37° C.: Within 1 h at 37° C., all three enzymes were able to cleave a >3000-fold excess of the xlLC3B substrate to near completion

B3: xlAtg4B^25-345 (protein)
chain: PVWVLGRKYSALTEKEQLLNDITSRLWFTYRRNFQAIGGTGPTSDTGWGCMLRCGQMIFAQALICRHVGRDWRWDKQKPKGEYLNILTAFLDKKDSYYSIHQIAQMGVGEGKYIGQWYGPNTVAQVLRKLAVFDQWSSIAVHIAMDNTVVVDEIRRLCRAGSGESSDAGALSNGYTGDSDPSCAQWKPLVLLIPLRLGLSEINEAYIETLKHCFMVPQSLGVIGGRPNSAHYFIGYVGDELIYLDPHTTQLSVEPSDCSFIEDESFHCQHPPCRMHVSEIDPSIAVGFFCSSQEDFEDWCQHIKKLSLSGGALPMFEVVDQ
His14-xlGATE16-MBP
  cleavage efficiency at limiting substrate concentration (constant protease:substrate ratio 1:2000, 1 h, 0° C.): Even more drastic effects were observed when cleaving xlGATE16-MBP with xlAtg4B^25-345 (FIG. 6A, right lower panel). Here, processing was poor even at 300 µM substrate concentration
  percent of a 6600-fold substrate excess cleaved in 1 h at 37° C.: could only cleave ≈30-4 0% of a 6600-fold substrate excess even at 37 °C
  protease concentration needed to cleave 100 µM substrate within 2 h at 0° C.: 500 nM of xlAtg4B^25-345 were insufficient to cleave 100 µM of xlGATE16 substrate within 2 h at 0 °C
  protease required for substrate processing at 0° C., against the other protease fragments: ≈10-fold and ≈30-fold more xlAtg4B^25-345 was required for xlGATE16 processing as compared to the other protease fragments at 0 °C and 25° C., respectively
  protease required for substrate processing at 25° C., against the other protease fragments: ≈10-fold and ≈30-fold more xlAtg4B^25-345 was required for xlGATE16 processing as compared to the other protease fragments at 0 °C and 25° C., respectively
  salt sensitivity of substrate cleavage (500 nM protease, 1 h, 0° C.): The weak activity of xlAtg4B^25-345 on xlGATE16 was further reduced at salt concentrations ≥0.5 M
His14-xlLC3B-MBP
  cleavage efficiency at limiting substrate concentration (constant protease:substrate ratio 1:1000, 1 h, 0° C.): the C-terminally truncated protease showed significantly reduced cleavage already at 100-30 µM substrate concentration
  protease concentration sufficient to cleave 100 µM substrate within 1 h at 0° C.: 1 µM of each protease fragment was sufficient to cleave 100 µM of substrate within 1 h
  salt sensitivity of substrate cleavage (500 nM protease, 1 h, 0° C.): Deletion of the protease's C-terminus, however, rendered the reaction salt sensitive at NaCl concentrations ≥0.5 M
  temperature dependence of substrate cleavage: The boost of xlLC3B substrate processing at higher temperatures, however, was much weaker for this protease fragment
  time for efficient cleavage (>95%) at 500 nM protease, 0° C., against full-length or N-terminally truncated enzymes: efficient cleavage (i.e. >95% cleavage) of the xlLC3B substrate required twice as long when using xlAtg4B^25-345 instead of the full-length or just N-terminally truncated xlAtg4B enzymes

B4: full-length xlAtg4B (Xenopus laevis Atg4B, residues 1-384) (protein)
chain: MDAATLTYDTLRFADTPDFPETAEPVWVLGRKYSALTEKEQLLNDITSRLWFTYRRNFQAIGGTGPTSDTGWGCMLRCGQMIFAQALICRHVGRDWRWDKQKPKGEYLNILTAFLDKKDSYYSIHQIAQMGVGEGKYIGQWYGPNTVAQVLRKLAVFDQWSSIAVHIAMDNTVVVDEIRRLCRAGSGESSDAGALSNGYTGDSDPSCAQWKPLVLLIPLRLGLSEINEAYIETLKHCFMVPQSLGVIGGRPNSAHYFIGYVGDELIYLDPHTTQLSVEPSDCSFIEDESFHCQHPPCRMHVSEIDPSIAVGFFCSSQEDFEDWCQHIKKLSLSGGALPMFEVVDQLPLHLSNPDVLNLTPDSSDADRLDRFFDSEDEEFEILSL
His14-xlGATE16-MBP
  salt sensitivity of substrate cleavage (500 nM protease, 1 h, 0° C.): also full-length or N-terminally truncated xlAtg4B fragments showed a reduced cleavage activity at ≥1 M NaCl
  temperature needed for near-complete cleavage of a 6600-fold substrate excess in 1 h: the full-length enzyme required 37 °C for a similarly efficient cleavage
His14-xlLC3B-MBP
  cleavage efficiency at limiting substrate concentration (constant protease:substrate ratio 1:1000, 1 h, 0° C.): full-length xlAtg4B and both N-terminally shortened fragments could cleave the xlLC3B substrate rather efficiently even at substrate concentrations as low as 3-10 µM
  protease concentration sufficient to cleave 100 µM substrate within 1 h at 0° C.: 1 µM of each protease fragment was sufficient to cleave 100 µM of substrate within 1 h
  salt sensitivity of substrate cleavage (500 nM protease, 1 h, 0° C.): xlLC3B processing by full-length xlAtg4B or its N-terminally truncated fragments was remarkably insensitive towards NaCl concentrations up to 1.5 M
  substrate excess cleaved to near completion within 1 h at 37° C.: Within 1 h at 37° C., all three enzymes were able to cleave a >3000-fold excess of the xlLC3B substrate to near completion
